Test results: the DeepSol protein solubility set

Assay: soluble on expression in E. coli; label from the status in PepcDB or PDB records

| Sequence | soluble on expression in E. coli |
| --- | --- |
| MGSDKIHHHHHHMVSMTKLVELKNSEASAVVLPRHGAGLASFDFLWRGSRLPAFRPLITEPQHEHDLALYLLAPFSNRIGGGGFAWNGRRHDLRPNVEGEPCPLHGDAWQQHWTVMDQGRTHVTLQLLSRSIPPFAYDAEITWTLDGPSLSGALTLIHRGEDPMPYGGGFHPWLVRDSDTQLHARADGWWSEDSLHLPKRWHALVDNDSSGFGAPRSLPSNFFNTVYTGWHGRADIWWPGRGLALQIEAQAPLNRYIVYSPGAEADFFCFEPVSHDVNAHNAPSPLKHGLVELAEGESLHLSARFTATLR | not soluble |
| MQTLLLALFSLAMVQAMRDQSIAVKGRLICGDKPAANVRIKLWEEDSGPDPDDLLEAGYTDSNGEFQLSGGEAELTPIDPIFKVYHDCDDKYIPGHRKVKFLIPKSYITQGKTPKKTFDLGVLNLETIFPKEERELIVSRKRRHHPKQYINEEDSF | not soluble |
| MGSDKIHHHHHHENLYFQGMRYLSKDILEEVITQRPSDSYKSNFGRVVLIGGNRQYGGAIIMSTEACINSGAGLTTVITDVKNHGPLHARCPEAMVVGFEETVLLTNVVEQADVILIGPGLGLDATAQQILKMVLAQHQKQQWLIIDGSAITLFSQGNFSLTYPEKVVFTPHQMEWQRLSHLPIEQQTLANNQRQQAKLGSTIVLKSHRTTIFHAGEPFQNTGGNPGMATGGTGDTLAGIIAGFLAQFKPTIETIAGAVYLHSLIGDDLAKTDYVVLPTKISQALPTYMKKYAQPHTAPDSELLEQKRSR | soluble |
| MGSDKIHHHHHHMEFDQAKKIVVATIIDQQGLSDRLVGCKAIITSTGRLSYSIPLAWVRERLEVLIRESLYRGSFEVISLANPNDTRQKATLMIDPYLPPQELIILGGGHIAQPLAKIGKLLGYQVAVLDDRPEFVSKDRFPEADKTICCSFDTVENSFDLGPQSNVVIVTRGHQHDLLCLRQMLKYPLAYLGMIGSRRKVAIIRERLLEEGLAVKKLNSVYMPIGLDIGAQTPAEIAVSITAELIKVRRGGKAASIKNIDKKNNDNEAGVFNLGELPSTIDQEILQLTLQAAINHVPAALATVVSTKGSTPRKAGAHMLVWADGRSLGTVGGGQGEAKVRAEAFKIINTSQPILYRISMDAANAAMEGMICGGSMEVFIEPVNGFAQVSGGGGIL | not soluble |
| SPLELELCPGRWVGGQHPCFIIAEIGQNHQGDLDVAKRMIRMAKECGADCAKFQKSELEFKFNRKALDRPYTSKHSWGKTYGEHKRHLEFSHDQYRELQRYAEEVGIFFTASGMDEMAVEFLHELNVPFFKVGSGDTNNFPYLEKTAKKGRPMVISSGMQSMDTMKQVYQIVKPLNPNFCFLQCTSAYPLQPEDVNLRVISEYQKLFPDIPIGYSGHETGIAISVAAVALGAKVLERHITLDKTWKGSDHSASLEPGELAELVRSVRLVERALGSPTKQLLPCEMACNEKLGKSVVAKVKIPEGTILTMDMLTVKVGEPKGYPPEDIFNLVGKKVLVTVEEDDTIMEELVDNHGKKIKS | soluble |
| MDKIVIKGGNKLTGEVKVEGAKNAVLPILTASLLASDKPSKLVNVPALSDVETINNVLTTLNADVTYKKDENAVVVDATKTLNEEAPYEYVSKMRASILVMGPLLARLGHAIVALPGGCAIGSRPIEQHIKGFEALGAEIHLENGNIYANAKDGLKGTSIHLDFPSVGATQNIIMAASLAKGKTLIENAAKEPEIVDLANYINEMGGRITGAGTDTITINGVESLHGVEHAIIPDRIEAGTLLIAGAITRGDIFVRGAIKEHMASLVYKLEEMGVELDYQEDGIRVRAEGELQPVDIKTLPHPGFPTDMQSQMMALLLTANGHKVVTETVFENRFMHVAEFKRMNANINVEGRSAKLEGKSQLQGAQVKATDLRAAAALILAGLVADGKTSVTELTHLDRGYVDLHGKLKQLGADIERIND | not soluble |
| FEKHGTYYEIFVRSFYDSDGDGIGDLKGIIEKLDYLNDGDPETIADLGVNGIWLMPIFKSPSYHGYDVTDYYKINPDYGTLEDFHKLVEAAHQRGIKVIIDLPINHTSERHPWFLKASRDKNSEYRDYYVWAGPDTDTKETKLDGGRVWHYSPTGMYYGYFWSGMPDLNYNNPEVQEKVIGIAKYWLKQGVDGFRLDGAMHIFPPAQYDKNFTWWEKFRQEIEEVKPVYLVGEVWDISETVAPYFKYGFDSTFNFKLAEAVIATAKAGFPFGFNKKAKHIYGVYDREVGFGNYIDAPFLTNHDQNRILDQLGQDRNKARVAASIYLTLPGNPFIYYGEEIGMRGQGPHEVIREPFQWYNGSGEGETYWEPAMYNDGFTSVEQEEKNLDSLLNHYRRLIHFRNENPVFYTGKIEIINGGLNVVAFRRYNDKRDLYVYHNLVNRPVKIKVASGNWTLLFNSGDKEITPVEDNNKLMYTIPAYTTIVLEKE | soluble |
| MGSDKIHHHHHHMANVIKLHKGLNINLKGKPAQEFFDVKQPDIYAIVPDDFHGVTPKVVVKEQEYVTAGGTLFVDKNHPEVKFVSPVSGVVTSVERGERRKVLSISIAAAKEQDYEEFGKKDVSTLTGEQVKAALLEAGLFSFIIQRPYIVVADPNAKPKGIFVSAFDTNPLAADFEFVLKGQEKDFQTGLDALAKMAKTYLNISVEQKSPALTNAKNVTVTAFDGPNPAGNVGVQINHISPINKGETVWTLRAEEVIFIGRLFNTGRVDLTRTIALTGSEVKKPAYCKLKVGALLTDIFAGRVNGGKNLRYINGNVLTGTLVKPNGFLGAHATSLTVIPEGDDRHEFLGFIMPRTDQYSANRSYFSWLCGNKEYTLDARIKGGERHMIMSGEYDKVFPMSIFPEYLIKAIIAGDIDRMEALGIYEVAPEDFAVCEFVDSSKLELQRIVRQGLDMLRKEMC | not soluble |
| MGSDKIHHHHHHMSDAHYDMHKRNGYSSDEPYPEIKVLGPNKYYAELLMDDYAGVSSEFTSVNQYLYHNFDLDETHRELSEMWINISITEMLHMEILAKTIRLLGGNPVYRGSTSSCGAYWNGGFVCYGNSICNRLKLDLHLEHVAINNYYKDISLIEDPYIKAILNRIILDEKLHVSLFEKAIEKYCK | not soluble |
| AIKDAATKLFDPYEILGISTSASDRDIKSAYRKLSVKFHPDKLAKGLTPDEKSVMEETYVQITKAYESLTDELVRQNYLKYGHPDGPQSTSHG | not soluble |
| MGSDKIHHHHHHMVLGGPMSLNRYFTGGLLCLLGCNPANAQTATIVLSATLLPACEAGSVGSGGAITFGTLDFGQYASLNNAISATSQQGAGSIRVRCVSGQTYAITLDGGLYGSVATRRMANIANTALTLTYNLYSDRPGGIVWDNTTGVAATGNGNDQWYPIYGLVPAQTTPVAGTYRDTVNVTISW | not soluble |
| MKKHHHHHHLVPRGSIPHLILELLKCEPDEPQVQAKIMAYLQQEQANRSKHEKLSTFGLMCKMADQTLFSIVEWARSSIFFRELKVDDQMKLLQNCWSELLILDHIYRQVVHGKEGSIFLVTGQQVDYSIIASQAGATLNNLMSHAQELVAKLRSLQFDQREFVCLKFLVLFSLDVKNLENFQLVEGVQEQVNAALLDYTMCNYPQQTEKFGQLLLRLPEIRAISMQAEEYLYYKHLNGDVPYNNLLIEMLHAKRA | soluble |
| MKETNGIPARLRQVAVIRDGPRQETVVLEADGMYYIKGETVYLQFAEENELGRVNNIVKIAPDEVTVLRSGAVEMRQTSRRRQETSGHYGTVFGRWALAAKTSSMEFHYDERRKKGRLFLSYELMLGDERSGRHTLTLTFKGV | not soluble |
| MQIDVDPQEDPQNAPDVNYVVENPTLDLEQYAASYSGLMRIERLQFIADRCPPLRVEALKMALSFVQRTFNVDMYEEIHRKLSEATRELQNAPDAIPESGVEPPPLDTAWVEATRKKALLKLEKLDTDLKNYKGNSIKESIRRGHDDLGDHYLDCGDLSNALKCYSRARDYCTSAKHVINMCLNVIKVSVYLQNWSHVLSYVSKAESTPEIAEQRGERDSQTQAILTKLKCAAGLAELAARKYKQAAKCFLLASFDHCDFPELLSPSNVAVYGGLCALATFDRQELQRNVISSSSFKLFLELEPQVRDIIFKFYESKYASCLKMLDEMKDNLLLDMYLAPHVRTLYTQIRNRALIQYFSPYVSADMHKMAAAFNTTVAALEDELTQLILEGLINARIDSHSKILYARDVDQRSTTFEKSLLMGKEFQRRAKAMILRAAVLRNQIHVKVKSLGCEGMGGTHTASTEPSLSTAVSS | not soluble |
| MKKQQFIDMQEQGTSTIPNLLLTHYKQLGLNETELILLLKIKMHLEKGSYFPTPNQLQEGMSISVEECTNRLRMFIQKGFLFIEECEDQNGIKFEKYSLQPLWGKLYEYIQLAQNQTQERKAEGEQKLEHHHHHH | soluble |
| MAHHHHHHMHNFAKIFRSNFIDINAANKFEIFLKTILRIYKTPARTHLLAHAADISAIYAVRQIYNYMKNDEEGRTVLKEKPLLIRQDIQFNELKKLPKNTLGYKYMKFLETYKLHAHDREVSHFFTDLNYSYILTRYRQIHDIGHVVYNLNISIESEAALKLIELVQTKLPITLLAILVAPFMTPIYRFQYIFKDSLPSNFLSPNFDFTYTDAYNYVDELSIKQYEYNLTDYFHVEKRNDRNFYTKMYQHYFDNINNSSAVRGSIIYGFENKSSNDIIYDQPNREYIFLKNLKKKYLLFQYKPRKNLLRELYPWAYMAGVSTTKPLHSIHIEKWLDKDIDLFRRTYNISPLPDHLNLMAGIN | not soluble |
| RGSLTIYIGYSPGVGKTFEMLSNAIELFQSNVDIKIGYIEPHQRDETNALAEQLPKITTNFTKHGSHHFQYLDVDRIIEESPTIVLIDELAHTNISRDRHEKRYMDIEEILNHGIDVHTTLNIQHIESLSSQIELMTGVHVKERVPDYFIMSADVLEVVDISPEQLIKRLKAGKVYKKDRLDVAFSNFFTYAHLSELRTLTLRTVADLMSDKEKVRHNHKTS | not soluble |
| MGSDKIHHHHHHMFKETLRECMEGHTLAERKAEQVMDAIMKGEATASQIASLLTVLRFRGETVAEMTGFARAMRRHSIQIEHSFSQVVDTCGTGGDDVGTFNISTATALLVSALGVPVAKHGNRAVSSKSGSADVLEALQIPIQSSPEEATASLQKHNMCFMFAPLYHVAMKHAVAPRKEIGFRTIFNLLGPLTNPARAEHQLIGVYDRNFAEKMAETLRRLGTKHSLLVAGHGGLDELSITGPSTVFEVKGDAIDRYELIPEDVGLERGDLAQIQVSTVQESATLIDQVLIGKANKSAQQIVLLNAGAALYAADRVDSIKAGVALAKEGIASGHVADHVRNLRQTDQEAEQHA | not soluble |
| MLFNFREKLNSRKFLVTAEVSPPKGTRFSASLEDASQLKGIADALNVTDNQCSIMHMSSLAFSKLLLDEGHEPIMQLTCRDRNRIGLQSDLLGAYALGIRNICLMTGDYPTCGDHPGSKPVYDVDSVQLIELVRKLDTGVDFAGNKLDGGTSFCAGAVSGIDPEKTMQLIKLQKKVKCGADFIQTQAVYDIGMFEEFMDAVNYLEVPVIAGLIPLKSLGMAEFMNKNISGIHVPEEIMLRMKDASSPMEEGLLIASETIKELTKLSRGIHVMPIGSHRNTARLLSLAGISQ | not soluble |
| MGSDKIHHHHHHMCQRAIANIDISKEYDESMGSNDVHYQSFARMADFFGRDMQAHRHDQFFQMHFLDTGQIELQLDDHRYSVQAPLFVLTPPSVPHAFITESDSDGHVLTVREELVWPLLEVLYPGTREAFGLPGICLSLADKPNELAALKHYWQLIERESTEQLAGCEHTLVLLAQAVFTLLLRNAKLDDHAATGMRGELKLFQRFTLLIDNHFHQHWTVPDYACELHITESRLTDICRRFANRPPKRLIFDRQLREAKRLLLFSDNAVNEIAWQLGFKDPAYFARFFNRLAGCSPSQFRQREVPSFLN | not soluble |
